Patent US20220010020A1 (Five Prime, published 2022)

T1: FGFR2-IIIb (fibroblast growth factor receptor 2 IIIb splice form) (human, UniProt P21802 22-377)
T1 construct: also called FGFR2b; KGFR
T1 chain: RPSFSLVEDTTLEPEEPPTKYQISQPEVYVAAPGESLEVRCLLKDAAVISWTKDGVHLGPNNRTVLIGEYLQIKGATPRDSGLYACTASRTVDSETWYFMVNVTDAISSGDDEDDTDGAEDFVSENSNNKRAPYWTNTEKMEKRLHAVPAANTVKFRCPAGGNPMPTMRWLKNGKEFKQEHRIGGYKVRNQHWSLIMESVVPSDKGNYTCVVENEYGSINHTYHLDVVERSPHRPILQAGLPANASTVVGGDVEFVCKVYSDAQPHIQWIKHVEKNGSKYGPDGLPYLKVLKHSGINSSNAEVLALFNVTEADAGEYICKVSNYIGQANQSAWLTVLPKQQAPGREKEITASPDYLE

B1: anti-FGFR2-IIIb antibody (afucosylated, humanized IgG1 monoclonal antibody), control sample incubated without hydrogen peroxide (antibody, V domains shown)
VH: QVQLVQSGAEVKKPGSSVKVSCKASGYIFTTYNVHWVRQAPGQGLEWIGSIYPDNGDTSYNQNFKGRATITADKSTSTAYMELSSLRSEDTAVYYCARGDFAYWGQGTLVTVSS
VL: DIQMTQSPSSLSASVGDRVTITCKASQGVSNDVAWYQQKPGKAPKLLIYSASYRYTGVPSRFSGSGSGTDFTFTISSLQPEDIATYYCQQHSTTPYTFGQGTKLEIKR
notes: also called αFGFR2b; Sample 1
B2: anti-FGFR2-IIIb antibody incubated with 0.01% hydrogen peroxide overnight at room temperature (force oxidized) (antibody, human IgG1, kappa, V domains shown)
VH: B1 VH
VL: B1 VL
notes: Same antibody as m1 after peroxide treatment; also called +0.01% H2O2; 0.01% H2O2
B3: anti-FGFR2-IIIb antibody incubated with 1.0% hydrogen peroxide overnight at room temperature (force oxidized) (antibody, human IgG1, kappa, V domains shown)
VH: B1 VH
VL: B1 VL
notes: Same antibody as m1 after peroxide treatment; also called +1.0% H2O2; 1.0% H2O2
B4: anti-FGFR2-IIIb antibody incubated with 0.1% hydrogen peroxide overnight at room temperature (force oxidized) (antibody, human IgG1, kappa, V domains shown)
VH: B1 VH
VL: B1 VL
notes: Same antibody as m1 after peroxide treatment; also called +0.1% H2O2; 0.1% H2O2

Target: T1, FGFR2-IIIb (fibroblast growth factor …)
Test: ELISA potency of forced oxidation samples

| Binder | Potency By ELISA |
| --- | --- |
| B1 | 84 |
| B2 | 102 |
| B3 | 83 |
| B4 | 89 |

Target: T1, FGFR2-IIIb (fibroblast growth factor …)
Test: blocking ELISA (potency), forced oxidation study

| Binder | % Potency (Assay 1), against Reference [%] | % Potency (Assay 2), against Reference [%] |
| --- | --- | --- |
| B1 | 79 | 89 |
| B2 | 98 | 106 |
| B3 | 73 | 93 |
| B4 | 78 | 100 |

Target: T1, FGFR2-IIIb (fibroblast growth factor …)
Test: blocking ELISA (potency), forced oxidation study; blocked ligand not named

| Binder | IC50 [µg/mL] |
| --- | --- |
| B1 | 0.0272 |
| B2 | 0.0208 |
| B3 | 0.0257 |
| B4 | 0.0259 |
